The values below come from patent publication US20100150950A1, “HUMAN ANTIBODIES THAT BIND CD70 AND USES THEREOF” (Medarex, Inc., priority 2006, published 2010).

In test [1] the target is T1, CD70 on Raji cells (Homo sapiens, UniProt P32970).
T1 construct: endogenous in cells; host or cells: Daudi (ATCC CCL-213), HuT 78 (TIB-161), Raji (CCL-86), Granta 519 (DSMZ 342)
T1 sequence (P32970 1-193): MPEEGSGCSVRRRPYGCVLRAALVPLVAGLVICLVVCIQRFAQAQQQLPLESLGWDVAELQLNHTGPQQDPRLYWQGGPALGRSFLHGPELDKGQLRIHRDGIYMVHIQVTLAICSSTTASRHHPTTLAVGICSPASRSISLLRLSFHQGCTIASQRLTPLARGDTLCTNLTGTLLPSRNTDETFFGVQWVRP
In words: Competition FACS assay with FITC-conjugated 69A7 on Raji cells. Type of test: binding. To be noted: naked antibody 10 μg/ml, then FITC-conjugated 69A7 10 μg/ml. The method, then: A competition FACS assay was carried out to elucidate the binding specificity of 69A7 against 2H5. Raji cells were incubated with either naked 69A7, 2H5, an isotype control antibody or no antibody at a concentration of 10 μg/ml. After wash, the cells were incubated with FITC-conjugated 69A7 at a concentration of 10 μg/ml. The cells were washed and binding was detected with a FITC-labeled anti-human IgG Ab. Flow cytometric analyses were performed using a FACSCalibur flow cytometry (Becton Dickinson, San Jose, Calif.).

The target in test [2] is T2, CD70 (Homo sapiens, UniProt P32970).
T2 sequence (P32970 1-193): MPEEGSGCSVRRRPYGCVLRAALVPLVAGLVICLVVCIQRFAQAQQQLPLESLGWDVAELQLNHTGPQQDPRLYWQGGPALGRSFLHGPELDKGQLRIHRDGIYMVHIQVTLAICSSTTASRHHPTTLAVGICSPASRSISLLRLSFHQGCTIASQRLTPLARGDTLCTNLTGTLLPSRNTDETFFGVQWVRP
Kind of test: Epitope binding experiments using BIAcore. As for the experimental part:
Such cross-competing antibodies can be identified based on their ability to cross-compete with 2H5, 10B4, 8B5, 18E7, 69A7, 69A7Y or 1F4 in standard CD70 binding assays. For example, standard ELISA assays can be used in which a recombinant human CD70 protein is immobilized on the plate, one of the antibodies is fluorescently labeled and the ability of non-labeled antibodies to compete off the binding of the labeled antibody is evaluated. Additionally or alternatively, BIAcore analysis can be used to assess the ability of the antibodies to cross-compete.

Test [3] has as its system CMV activated CD70+/CD4+ cells. Kind of test: CMV Ag stimulated human CD4+ T cell expansion. Type of test: cell-based. To be noted: 2 μg/ml, day 9. As for the experimental part: CMV positive pre-screened donors were cultured in AIM-V media supplemented with 10% heat-inactivated FCS at 1×10^6 cells/ml on 24-well culture plates and stimulated with 5.0 μg/ml of CMV lysate in the presence of 2 μg/ml of biotinylated 2H5, 2H5 NF or hIgG1nf control Abs. Cells were harvested on day 9 and the number of viable cells/ml in each culture was determined by counting an aliquot using a hemocytometer and trypan blue exclusion. The cells were washed in staining buffer and blocked with 5% human serum. Biotinylated 2H5, 2H5 NF, or hIgG1nf were added to an equal volume of cells at 20 μg/ml final concentration. Cells were incubated for 30 minutes, washed and stained with anti-CD4-FITC and PE-conjugated streptavidin. Cells were again incubated for 30 minutes, washed twice and then fixed and permeabilized using BD Cytofix/Cytoperm kit. The cells were washed twice in perm/wash buffer and intracellular stained with anti-INFγ-APC (BD Clone B27). […] Cells were analyzed by flow cytometry for CD70 surface and INFγ intracellular expression by gating on live CD4+ cells. The number of CD4+/CD70+ and CD4+/INFγ+ cells/ml in each condition were calculated by multiplying the percent CD70+ or INFγ+ cells in the CD4 gate by the percent of total CD4+ cells times the total number of viable cells/ml ((%CD70+ or INFγ+)×(%CD4+)×(total viable cells/ml)).

For test [4], the system named is HuT 78 cells. In words: ADCC fluorescence cytotoxicity assay, HuT 78. Type of test: cell-based, human. As to conditions: target to effector ratio 1:50. As for the experimental part: In this example, anti-CD70 monoclonal antibodies were tested for the ability to kill CD70+ cell lines in the presence of effector cells via antibody dependent cellular cytotoxicity (ADCC) in a fluorescence cytotoxicity assay.
Human effector cells were prepared from whole blood as follows. Human peripheral blood mononuclear cells were purified from heparinized whole blood by standard Ficoll-paque separation. The cells were resuspended in RPMI1640 media containing 10% FBS and 200 U/ml of human IL-2 and incubated overnight at 37° C. The following day, the cells were collected and washed four times in culture media and resuspended at 2×10^7 cells/ml. […]
The CD70+ cell lines ARH-77 (human B lymphoblast leukemia; ATCC Accession No. CRL-1621), HuT 78 (human cutaneous lymphocyte lymphoma; ATCC Accession No. TIB-161), Raji (human B lymphocyte Burkitt's lymphoma; ATCC Accession No. CCL-86) and a negative control cell line L540 (human Hodgkin's lymphoma; DSMZ Deposit No. ACC 72) were tested for antibody specific ADCC to the human anti-CD70 monoclonal antibodies using the Delfia fluorescence emission analysis as follows. […]
In this example, a defucosylated and non-defucosylated anti-CD70 monoclonal antibody was tested for the ability to kill CD70+cells in the presence of effector cells via antibody dependent cellular cytotoxicity (ADCC) in a fluorescence cytotoxicity assay […]

B1: anti-CD70 human monoclonal antibody 69A7 (antibody, V domains shown)
VH: QVQLQESGPGLVKPSETLSLTCTVSGGSVSSDYYYWSWIRQPPGKGLEWLGYIYYSGSTNYNPSLKSRVTISVDTSKNQFSLKLRSVTTADTAVYYCARGDGDYGGNCFDYWGQGTLVTVSS
VL: EIVLTQSPATLSLSPGERATLSCRASQSVSSYLAWYQQKPGQAPRLLIFDASNRATGIPARFSGSGSGTDFTLTISSLEPEDFAVYYCQQRSNWPLTFGGGTKVEIK
notes: Human IgG from hybridoma; also called HuMAb 69A7; FITC-conjugated 69A7
As for B1, the “blocking of FITC-labeled 69A7 binding” value in test [1] is reported as “blocked binding”. In test [2], the “epitope on CD70” value was “distinct epitopes”.

B2: 2H5 NF: 2H5 HuMAb lacking fucosyl residues, expressed in CHO cell line Ms704-PF (antibody, V domains shown)
VH: QVQLVESGGGVVQPGRSLRLSCAASGFTFSSYIMHWVRQAPGKGLEWVAVISYDGRNKYYADSVKGRFTISRDNSKNTLYLQMNSLRAEDTAVYYCARDTDGYDFDYWGQGTLVTVSS
VL: EIVLTQSPATLSLSPGERATLSCRASQSVSSYLAWYQQKPGQAPRLLIYDASNRATGIPARFSGSGSGTDFTLTISSLEPEDFAVYYCQQRTNWPLTFGGGTKVEIK
In the case of B2, the “depletion of CMV activated CD70+/CD4+ cells” value in test [3] is reported as 97%. Further, the “ADCC, % lysis of HuT 78” value in test [4] is given as “increased percentage of specific lysis”.
